Results published in US20220227830A1, “QD DOSING OF GIP RECEPTOR AGONIST PEPTIDE COMPOUNDS AND USES THEREOF” (Takeda Pharmaceutical Company Limited, priority 2020, published 2022).
Starred links: 1 amine or outer side, 2 acyl side, 3 side chain; linkers in the order of their positions; H or OH if unused. Non-standard residues stand in square brackets, D forms with d. Groups on a side chain read outwards from the residue. No end group written: not given here. *: point of attachment. 2OEGgEgE‑C15DA = 2OEGgEgE-C15 diacid linker-lipid on the Lys side chain, O=C(O)CCCCCCCCCCCCCC(=O)N[C@@H](CCC(=O)N[C@@H](CCC(=O)NCCOCCOCC(=O)NCCOCCOCC(=O)*)C(=O)O)C(=O)O; 2OEGgE‑C16DA = O=C(O)CCCCCCCCCCCCCCC(=O)N[C@@H](CCC(=O)NCCOCCOCC(=O)NCCOCCOCC(=O)*)C(=O)O; G2E3 = linker of 2 Gly and 3 Glu (read GGEEE); C15 diacid = O=C(O)CCCCCCCCCCCCCC(=O)*; γGlu = O=C(O)[C@H](CCC(=O)[*:2])N[*:1]; NMeY = CN[C@@H](Cc1ccc(O)cc1)C(=O)O; AEEA = NCCOCCOCC(=O)O; Aib = CC(C)(N)C(=O)O

T1: full-length human GIPR with an N-terminal FLAG tag (human, UniProt P48546 22-466)
T1 sequence (looked up): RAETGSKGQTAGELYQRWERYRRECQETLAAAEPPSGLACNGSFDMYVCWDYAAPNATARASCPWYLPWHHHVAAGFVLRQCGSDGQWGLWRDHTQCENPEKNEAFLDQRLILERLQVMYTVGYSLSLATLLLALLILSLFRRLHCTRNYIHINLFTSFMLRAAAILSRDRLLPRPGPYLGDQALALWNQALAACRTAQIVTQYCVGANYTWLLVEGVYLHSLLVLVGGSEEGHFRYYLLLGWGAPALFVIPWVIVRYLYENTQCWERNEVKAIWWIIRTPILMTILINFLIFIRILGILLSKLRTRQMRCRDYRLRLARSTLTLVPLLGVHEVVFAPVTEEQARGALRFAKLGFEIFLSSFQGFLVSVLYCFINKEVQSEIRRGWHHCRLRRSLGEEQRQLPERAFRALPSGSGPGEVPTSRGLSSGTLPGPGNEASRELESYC

B1: Compound 144 (peptide)
peptide: Me-Y[Aib]EGTFISDYSIALDR[Aib]KQ[Aib]NFVNWLLAQSPSSGAPPPS-NH2
modifications: not fully specified (residues 1, 18)
B2: Compound 17 (peptide)
peptide: Me-Y[Aib]EGTFISDYSIALDR[Aib]K([AEEA-AEEA-γGlu-γGlu-C15 diacid])Q[Aib]NFVNWLLAQSPSSGAPPPS-NH2
B3: Compound 86 (peptide)
peptide: [NMeY][Aib]EGTFISDYSIALDR[Aib]AQ[Aib]K([AEEA-γGlu-γGlu-C15 diacid])FVNWLLAQR-NH2
modifications: N-terminus assumed
SMILES: CC[C@H](C)[C@H](NC(=O)[C@H](CO)NC(=O)[C@H](Cc1ccc(O)cc1)NC(=O)[C@H](CC(=O)O)NC(=O)[C@H](CO)NC(=O)[C@@H](NC(=O)[C@H](Cc1ccccc1)NC(=O)[C@@H](NC(=O)CNC(=O)[C@H](CCC(=O)O)NC(=O)C(C)(C)NC(=O)[C@H](Cc1ccc(O)cc1)NC)[C@@H](C)O)[C@@H](C)CC)C(=O)N[C@@H](C)C(=O)N[C@@H](CC(C)C)C(=O)N[C@@H](CC(=O)O)C(=O)N[C@@H](CCCNC(=N)N)C(=O)NC(C)(C)C(=O)N[C@@H](C)C(=O)N[C@@H](CCC(N)=O)C(=O)NC(C)(C)C(=O)N[C@@H](CCCCNC(=O)COCCOCCNC(=O)CC[C@H](NC(=O)CC[C@H](NC(=O)CCCCCCCCCCCCCC(=O)O)C(=O)O)C(=O)O)C(=O)N[C@@H](Cc1ccccc1)C(=O)N[C@H](C(=O)N[C@@H](CC(N)=O)C(=O)N[C@@H](Cc1c[nH]c2ccccc12)C(=O)N[C@@H](CC(C)C)C(=O)N[C@@H](CC(C)C)C(=O)N[C@@H](C)C(=O)N[C@@H](CCC(N)=O)C(=O)N[C@@H](CCCNC(=N)N)C(N)=O)C(C)C
B4: Compound 20 (peptide)
peptide: Me-Y[Aib]EGTFISDYSI[Aib]LDRKAQ[Aib]NFVNWLLAQRPSSGAPPPS-NH2
modifications: not fully specified (residues 1, 17)
B5: Compound 21 (peptide)
peptide: Me-Y[Aib]EGTFISDYSI[Aib]LDR[Aib]AQ[Aib]NFVNWLLAQK([2OEG-γGlu-γGlu-C15 diacid])PSSGAPPPS-NH2
B6: Compound 14 (peptide)
peptide: [NMeY][Aib]EGTFISDYSIALDR[Aib]AQ[Aib]K([AEEA-AEEA-γGlu-γGlu-C15 diacid])FVNWLLAQR-NH2
modifications: not fully specified (N-terminus); also: C-term NH2 in mods, C_TER column prints OH
B7: Compound 59 (peptide)
peptide: Y[Aib]EGTFISDYSI[Aib]KDR[Aib]AQ[Aib]NFVNWLLAQR-NH2
modifications: not fully specified (residues 1, 14)
B8: Compound 35 (peptide)
peptide: [NMeY][Aib]EGTFISDYSIALDK[Aib]AQ[Aib]NFVNWLLAK([AEEA-AEEA-γGlu-C15 diacid])S-OH
modifications: not fully specified
B9: Compound 111 (peptide)
peptide: [NMeY][Aib]EGTFISDYSI[Aib]LDR[Aib]K(2OEGgEgE‑C15DA)Q[Aib]NFVNWLLAQSPSSGAPPPS-NH2
modifications: N-terminus assumed
SMILES: CC[C@H](C)[C@H](NC(=O)[C@H](Cc1ccccc1)NC(=O)[C@@H](NC(=O)CNC(=O)[C@H](CCC(=O)O)NC(=O)C(C)(C)NC(=O)[C@H](Cc1ccc(O)cc1)NC)[C@@H](C)O)C(=O)N[C@@H](CO)C(=O)N[C@@H](CC(=O)O)C(=O)N[C@@H](Cc1ccc(O)cc1)C(=O)N[C@@H](CO)C(=O)N[C@H](C(=O)NC(C)(C)C(=O)N[C@@H](CC(C)C)C(=O)N[C@@H](CC(=O)O)C(=O)N[C@@H](CCCNC(=N)N)C(=O)NC(C)(C)C(=O)N[C@@H](CCCCNC(=O)COCCOCCNC(=O)COCCOCCNC(=O)CC[C@H](NC(=O)CC[C@H](NC(=O)CCCCCCCCCCCCCC(=O)O)C(=O)O)C(=O)O)C(=O)N[C@@H](CCC(N)=O)C(=O)NC(C)(C)C(=O)N[C@@H](CC(N)=O)C(=O)N[C@@H](Cc1ccccc1)C(=O)N[C@H](C(=O)N[C@@H](CC(N)=O)C(=O)N[C@@H](Cc1c[nH]c2ccccc12)C(=O)N[C@@H](CC(C)C)C(=O)N[C@@H](CC(C)C)C(=O)N[C@@H](C)C(=O)N[C@@H](CCC(N)=O)C(=O)N[C@@H](CO)C(=O)N1CCC[C@H]1C(=O)N[C@@H](CO)C(=O)N[C@@H](CO)C(=O)NCC(=O)N[C@@H](C)C(=O)N1CCC[C@H]1C(=O)N1CCC[C@H]1C(=O)N1CCC[C@H]1C(=O)N[C@@H](CO)C(N)=O)C(C)C)[C@@H](C)CC
B10: Compound 142 (peptide)
peptide: YXEGTFISDYSIXXDRXAQXDFVNWLLAQRG
modifications: Me-Tyr1; Aib 2,13,17,20; Km14 = Lys(GGGGG-C15 diacid) (Table 3 prints the linker 'GS'); C-term OH
B11: Compound 79 (peptide)
peptide: [NMeY][Aib]EGTFISDYSIAK([G5-γGlu-C15 diacid])DR[Aib]AQ[Aib]DFVNWLLAQSPSSGAPPPS-NH2
B12: Compound 49 (peptide)
peptide: Y[Aib]EGTFISDYSIAK([G2E3-C15 diacid])DR[Aib]AQ[Aib]NFVNWLLAQRPSSGAPPPS-OH
modifications: not fully specified (residue 1); also: Me-Tyr methyl position not given here
B13: Compound 113 (peptide)
peptide: [NMeY][Aib]EGTFISDYSI[Aib]LDR[Aib]AQ[Aib]K([Gly-Gly-Glu-Glu-Glu-C15 diacid])FVNWLLAQK-NH2
B14: Compound 148 (peptide)
peptide: Me-Y[Aib]EGTFISDYSIALDR[Aib]AQ[Aib]KFVNWLLAQKG-OH
modifications: not fully specified (residues 1, 21)
B15: Compound 3 (peptide)
peptide: [NMeY][Aib]EGTFISDYSIAKDR[Aib]AQQNFVNWLLAQK
modifications: not fully specified (residue 14)
B16: Compound 25 (peptide)
peptide: [NMeY][Aib]EGTFISDYSIALDR[Aib]AQ[Aib]K([AEEA-AEEA-γGlu-γGlu-C15 diacid])FVNWLLAQKG-OH
modifications: N-terminus assumed
SMILES: CC[C@H](C)[C@H](NC(=O)[C@H](CO)NC(=O)[C@H](Cc1ccc(O)cc1)NC(=O)[C@H](CC(=O)O)NC(=O)[C@H](CO)NC(=O)[C@@H](NC(=O)[C@H](Cc1ccccc1)NC(=O)[C@@H](NC(=O)CNC(=O)[C@H](CCC(=O)O)NC(=O)C(C)(C)NC(=O)[C@H](Cc1ccc(O)cc1)NC)[C@@H](C)O)[C@@H](C)CC)C(=O)N[C@@H](C)C(=O)N[C@@H](CC(C)C)C(=O)N[C@@H](CC(=O)O)C(=O)N[C@@H](CCCNC(=N)N)C(=O)NC(C)(C)C(=O)N[C@@H](C)C(=O)N[C@@H](CCC(N)=O)C(=O)NC(C)(C)C(=O)N[C@@H](CCCCNC(=O)COCCOCCNC(=O)COCCOCCNC(=O)CC[C@H](NC(=O)CC[C@H](NC(=O)CCCCCCCCCCCCCC(=O)O)C(=O)O)C(=O)O)C(=O)N[C@@H](Cc1ccccc1)C(=O)N[C@H](C(=O)N[C@@H](CC(N)=O)C(=O)N[C@@H](Cc1c[nH]c2ccccc12)C(=O)N[C@@H](CC(C)C)C(=O)N[C@@H](CC(C)C)C(=O)N[C@@H](C)C(=O)N[C@@H](CCC(N)=O)C(=O)N[C@@H](CCCCN)C(=O)NCC(=O)O)C(C)C
B17: Compound 2 (peptide)
peptide: [NMeY][Aib]EGTFISDYSIAKDR[Aib]AQQNFVNWLLAQK
modifications: not fully specified (residue 14, N-terminus)
B18: Compound 19 (peptide)
peptide: Me-Y[Aib]EGTFISDYSI[Aib]K([AEEA-AEEA-γGlu-γGlu-C15 diacid])DR[Aib]AQ[Aib]NFVNWLLAQRPSSGAPPPS-NH2
B19: Compound 54 (peptide)
peptide: [NMeY][Aib]EGTFISDYSIALDRKAQ[Aib]NFVNWLLAQSPSSGAPPPS-OH
modifications: not fully specified (residue 17)
B20: Compound 120 (peptide)
peptide: [NMeY][Aib]EGTFISDYSI[Aib]KDR[Aib]AQ[Aib]NFVNWLLAQRPSSGAPPPS-NH2
modifications: not fully specified (residue 14)
B21: Compound 1 (peptide)
peptide: [NMeY][Aib]EGTFISDYSIAK(2OEGgE‑C16DA)DR[Aib]AQQNFVNWLLAQK
B22: Compound 50 (peptide)
peptide: Y[Aib]EGTFISDYSIAKDR[Aib]AQ[Aib]NFVNWLLAQRPSSGAPPPS-OH
modifications: not fully specified (residues 1, 14); also: Me-Tyr methyl position not given here
B23: Compound 143 (peptide)
peptide: Me-Y[Aib]EGTFISDYSIALDR[Aib]AQ[Aib]KFVNWLLAQKG-OH
modifications: not fully specified (residues 1, 21)

How the values were obtained:
[1] = target: T1, full-length human GIPR with an …; experiment: cell-based or functional assay
[2] = target: full-length human GLP-1R with an N-terminal FLAG tag (human, UniProt P43220 24-463); experiment: cell-based or functional assay

| Binder | Human GIPR cAMP, HEK293T EC50 [1] [pM] | Human GLP1R cAMP HEK293T EC50 [2] [nM] |
| --- | --- | --- |
| B1 | 0.1 |  |
| B2 | 0.4 |  |
| B3 | 1.4 |  |
| B4 | 0.3 |  |
| B5 | 0.3 |  |
| B6 | 0.4 |  |
| B7 | 0.4 |  |
| B8 | 0.3 |  |
| B9 | 0.4 |  |
| B10 | 0.1 |  |
| B11 | 0.2 |  |
| B12 | 0.2 |  |
| B13 | 0.4 |  |
| B14 | 1.1 |  |
| B15 |  | 692 |
| B16 | 0.5 |  |
| B17 |  | 1000 |
| B18 | 0.4 |  |
| B19 | 0.1 |  |
| B20 | 0.4 |  |
| B21 |  | 871 |
| B22 | 0.4 |  |
| B23 | 0.4 |  |
